Results as given in patent publication US20200199214A1 (Hoffmann-La Roche, published 2020).

What was measured:
Human VEGF121-His = molecular target: T1, Human VEGF121-His (human, UniProt P15692-9 27-147); assay: SPR, VEGF121-His captured via anti-His antibody, Fab injected, single cycle kinetics, 1:1 Langmuir fit
T1 construct: not shown: His tag
T1 sequence (looked up): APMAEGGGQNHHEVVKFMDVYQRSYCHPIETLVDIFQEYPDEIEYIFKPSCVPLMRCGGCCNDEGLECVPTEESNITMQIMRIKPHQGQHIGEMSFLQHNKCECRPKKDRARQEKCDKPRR
Protocol: An anti-His capturing antibody (GE Healthcare 28995056) was immobilized to a Series S Sensor Chip C1 (GE Healthcare 29104990) using standard amine coupling chemistry resulting in a surface density of approximately 500 resonance units (RU). As running and dilution buffer, HBS-P+(10 mM HEPES, 150 mM NaCl pH 7.4, 0.05% Surfactant P20) was used. Human VEGF121-His was captured to the surface with resulting ligand densities of approximately 10 and 20 RU, respectively. A dilution series of the bispecific anti-VEGF/anti-IL-1beta Fab fragment (1.2-100 nM, 1:3 dilution) was successively injected for 90 s each, dissociation was monitored for 3600 s at a flow rate of 30 μl/min (single cycle kinetics). The surface was regenerated by injecting 10 mM Glycine pH 1.5 for 60 s. Bulk refractive index differences were corrected by subtracting blank injections and by subtracting the response obtained from the control flow cell without captured human VEGF121. Curve fitting was performed using the 1:1 Langmuir binding model within the Biacore evaluation software. To provide more robust fitting, the Multiple Rmax option was chosen for global fitting using both ligand densities.
(§1) Binding kinetics to VEGF and IL-1beta for the candidate antibodies were assessed as described in Example 3 using the indicated bispecific anti-VEGF/anti-IL-1beta Fab fragments (amino acid sequence as illustrated in Table 3). For comparison, antigen binding kinetics of prior art anti-VEGF/anti-IL-1beta antibody 0032, a full length IgG antibody, as disclosed in WO2016/075034 are depicted.

[1] = molecular target: T2, human IL-1 beta (PeproTech 200-01B) (human, UniProt P01584 117-269); assay: SPR, Fab captured via anti-Fab antibody, human IL-1beta injected, 1:1 Langmuir fit
T2 construct: As printed it covers only the N-terminal part of the precursor, so it was not used; also called huIL-1 beta; IL1β
Protocol: An anti-Fab capturing antibody (GE Healthcare 28958325) was immobilized to a Series S Sensor Chip C1 (GE Healthcare 29104990) using standard amine coupling chemistry resulting in a surface density of approximately 500 resonance units (RU). The bispecific anti-VEGF/anti-IL-1beta Fab fragment was captured to the surface with resulting capture levels of approximately 20 RU. A dilution series ranging from 0.74 to 60 nM (1:3 dilution) of either human IL-1 beta (PeproTech 200-01B) or cynomolgus IL-1 beta (Sino Biological 90010-CNAE) was injected for 90 s, dissociation was monitored for at least 600 s at a flow rate of 30 μl/min. The surface was regenerated by two consecutive injections of 10 mM Glycine pH 2.1 for 60 s each. Bulk refractive index differences were corrected by subtracting blank injections and by subtracting the response obtained from the control flow cell without captured bispecific anti-VEGF/anti-IL-1beta Fab fragment. Curve fitting was performed using the 1:1 Langmuir binding model within the Biacore evaluation software.
as §1

human VEGF121 [2] = molecular target: T3, human VEGF121 (human, UniProt P15692-9 27-147); assay: SPR competition: Fab preincubated with 50 nM VEGF121, injected over immobilised hVEGFR2 (competitor); in presence of IL-1beta
T3 construct: No tag is stated for these preparations; Kept apart from VEGF121-His; also called HuVEGF121
T3 sequence (looked up): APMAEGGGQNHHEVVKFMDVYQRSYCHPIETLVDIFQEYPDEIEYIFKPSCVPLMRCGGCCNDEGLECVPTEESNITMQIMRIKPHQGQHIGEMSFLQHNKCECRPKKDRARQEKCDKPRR
Protocol: (§2) As running and dilution buffer, HBS-P+(10 mM HEPES, 150 mM NaCl pH 7.4, 0.05% Surfactant P20) was used.
(§3) For assessing VEGF-receptor binding inhibition, a final concentration of 200 nM of R07200394 or 400 nM antibody 0032 was preincubated with 50 nM VEGF121. For assessing IL-1beta-receptor binding inhibition, a final concentration of 200 nM of R07200394 or 200 nM antibody 0032 was with preincubated with 50 nM IL-1beta. Samples were diluted (1:2) in the corresponding 50 nM VEGF121 or IL-1beta solution.
(§4) The antibody/ligand mixtures were injected onto the VEGFR2 or IL-1R1 surface for 60 s at a flow rate of 5 μl/min. After a dissociation phase for 60 s, the VEGFR2 surface was regenerated by injecting 5 mM NaOH for 60 s, whereas the IL-1R1 surface was regenerated by injecting 10 mM Glycine pH 3.0 followed by 5 mM NaOH for 60 s each. Bulk refractive index differences were corrected by subtracting blank injections and by subtracting the response obtained from the blank control flow cell. For evaluation, the binding response 5 seconds after inject end was taken. The derived response in RU was transformed to a binding response relative to the initial signal corresponding to the ligand(s) without antibody. IC50 values were calculated using a 4 parameter logistic model (XLfit, ID Business Solutions Ltd.)

human VEGF121 [3] = molecular target: T3, human VEGF121; assay: SPR competition: Fab (from 200 nM, 1:2 dilutions) preincubated with 50 nM VEGF121, injected over immobilised hVEGFR2 (competitor); without IL-1beta
Protocol: as §2, §3, §4

B1: bispecific anti-VEGF/anti-IL-1beta Fab fragment RO7200394 (Fab, V domains shown)
VH: DEQLVESGGGLVKPGGSLRLSCAAEGMVFKWNDMSWVRQAPGKGLEWVGSISKKGDHKYLNTKFIGRFTISRDNEKDTLYLQMNSLRAEDTAVYYCAKDVGFFDIWGQGTLVTVSS
VL: AIYMHQEPSSLSASVGDRVTITCHGSYWLSSLVAWYQQKPGKAPKLLIYDAKYKHLGVPSRFSGSKEDQEFTLTISSLQPEDFATYYCQQYRYHPYTFGHGTKVEIKR
notes: same variable domains as 1HVL12.85; also called R07200394
Kd (Human VEGF121-His): 0.006 nM
koff (Human VEGF121-His): 1.63e-05 s⁻¹
kon (Human VEGF121-His): 2.85e+06 M⁻¹ s⁻¹
t½ (Human VEGF121-His): 11.8 h
Kd [1]: 0.021 nM
koff [1]: 0.000102 s⁻¹
kon [1]: 4.73e+06 M⁻¹ s⁻¹
t 1/2 [1]: 1.9 h
IC50 (human VEGF121 [2]): 39 nM
IC50 (human VEGF121 [3]): 44 nM
